Experimental findings from the RNAGym collection of RNA variant scans (doi:10.1073/pnas.2313332121) are described below.

B1: TPR t1 (parent)
chain: GACCAAUCUGCCCUCAGAGCUCGAGAACAUCUUCGGAUGCAGAGGAGGCAGGCUUCGGUGGCGCGAUAGCGCCAACGUCCUCAACCUCCAAUGCAUCCCACCACAUGAUGAUGCCUGAAGAGCCUUGGUUUUUUG

In the series the parent is B1. Nature of the series: polymerase ribozyme fitness, log enrichment relative to wild type (log ratio); higher = more active; in vitro selection for triplet polymerase activity. A digest of the protocol:
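Each subunit of a heterodimeric triplet polymerase ribozyme was represented by a PCR-built, transcribed mutant library that underwent triplicate single-round in vitro selection with frozen incubation at −7 °C. Extended constructs were recovered by gel excision, streptavidin-bead capture and RT-PCR, and Illumina sequencing of input and output libraries kept genotypes with ≥10 input reads and ≥1 read per output. Fitness is the logarithm of genotype enrichment relative to wild-type enrichment, from inverse-variance-weighted replicate averages, with a logarithm base of 2.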
With C13G G71A G128U, the “polymerase ribozyme fitness (log ratio)” value is -4.42.

As for C13G C101A, the “polymerase ribozyme fitness (log ratio)” value is -2.61. Next, C12U G39C G52C C53A C79A A119U: -1.3; C12U C70U C97A: -5.44. Consider C13A A75U U125A, for which the “polymerase ribozyme fitness (log ratio)” value is -2.12. The same measure for C13U C20G G63C: -4.8; for C12U C56A G69A: -2.89.

In the case of C13A G120A, the “polymerase ribozyme fitness (log ratio)” value is -0.19. Next, C13G A37C U112C: -0.647; C13A G47A: -2.5; C13G U132A: -1.5. Next, C13G G69A U132A: -3.7; C13U C49U: -0.549.

As for C12U C31G, the “polymerase ribozyme fitness (log ratio)” value was -5.12.

As to C13G U78G, the “polymerase ribozyme fitness (log ratio)” value was -2.05. Next, C13G G69A: -3.66; C13A C123U: 0.793. The same measure for C13A C123G: -0.0402; for C13G G47A U54C: -2.54.

C13A A27C C70U: the “polymerase ribozyme fitness (log ratio)” value is -5.92.

With C12U G69A, the “polymerase ribozyme fitness (log ratio)” value is -2. Next, C12U C70U G71A: -0.916; C12U A91U G135U: -2.33; C13A G61C: -1.81.

In the case of C13A A90G A95G U133G, the “polymerase ribozyme fitness (log ratio)” value was -1.7.

For the variant C12U G44U G47C C89A A90C U116A U131G, the “polymerase ribozyme fitness (log ratio)” value is -3.02.

With C13G A37U U38C C62U, the “polymerase ribozyme fitness (log ratio)” value was -4.23.

For C12U G19U A43U C64G A95C G117U, the “polymerase ribozyme fitness (log ratio)” value is -7.83. Turning to C13A C86A, the “polymerase ribozyme fitness (log ratio)” value was -3.09. In the case of C13U C34A U54A U78C U112A G122C, the “polymerase ribozyme fitness (log ratio)” value was -3.05. Next, C12U G52A G63C U112A G120A: -0.326; C12U C70U C80A C97U A121G U133A: -3.61; C12U C15U G45U G69C C82A C101U: -2.95. Next, C12U U38G G63U: -1.77. With C13A G57C C85G C123U, the “polymerase ribozyme fitness (log ratio)” value was -1.45. The same measure for C13G A83C A121G: 1.65. Next, C12U U133G: -0.256; C13U A29C C56U: -2.25; C13U A108G G120A: -1.12.

As to C13U A37G G47A G57C G71C, the “polymerase ribozyme fitness (log ratio)” value was -1.61. The same measure for C13G G69C C94U C115U G135A: -3.43; for C13G G51A: -4.69. The same measure for C13G G113A: -2.45; for C12U G42U C70U U81C G120U: -1.9; for C13G C22A G45U G77A A111U: -6.13. The same measure for C13G A16C C85G A121C: -3.75; for C12U C53G A90C: -1.61. For the variant C13G C62G G117C, the “polymerase ribozyme fitness (log ratio)” value is -8.19. For C13A A50U C72A, the “polymerase ribozyme fitness (log ratio)” value is -3.71. The same measure for C12U G120C: 2. Next, C12U G120A: 1.63; C13A C72U: -1.96. Next, C12U C40G: -0.0831.

In the case of C13A A119U, the “polymerase ribozyme fitness (log ratio)” value was determined as 0.145.

For C13U C56U U92C C114A, the “polymerase ribozyme fitness (log ratio)” value is -1.92.

For the variant C12U C73A C104A, the “polymerase ribozyme fitness (log ratio)” value is -0.305. As to C13U A46U, the “polymerase ribozyme fitness (log ratio)” value is -0.902. The same measure for C13G A66U: -2.18; for C13U A18U G42C U87A: -0.601; for C12U G63U U78A C79U: 0.0353. The same measure for C12U C49A A50C A95C: -1.09; for C12U G65U: -4.93.

As to C12U G63A U106G, the “polymerase ribozyme fitness (log ratio)” value was -3.38. Next, C12U C20U C22A G45U C70U A83U A118U: -6.7; C13A C53A C115U A119U: 0.949. Next, C13A C20A: -3.84. The same measure for C12U C62A C73U G77U: -3.65; for C13A G51U: -5.64. Consider C13U C56G, for which the “polymerase ribozyme fitness (log ratio)” value worked out at 0.205. On to C13U C40A C82A C89A, for which the “polymerase ribozyme fitness (log ratio)” value was -2.38. Next, C13U A18C U55G G93U: -2.65; C13A A27C U129A: -5.35; C13U C40U A43G G52U G58C A91C: -2.35. The same measure for C12U A121C: 2.05; for C12U G17C C97G C115G: -3.25; for C13G G51U C72G A111C: -6.15. On to C12U C13U A50U U78G U131C, for which the “polymerase ribozyme fitness (log ratio)” value is -0.743.

Turning to C12U G51A G71C C79U C101A, the “polymerase ribozyme fitness (log ratio)” value was -5.68.

Take C12U U21G C88U: the “polymerase ribozyme fitness (log ratio)” value was -2.37. For the variant C13A C20U G42U G44A C102U G127C, the “polymerase ribozyme fitness (log ratio)” value was -6.04. Next, C13A G61U A91U: -2.53. Next, C12U G71C: -0.564; C12U U14A C40A A105C: -3.92.

As for C13U C15G A50G G61A, the “polymerase ribozyme fitness (log ratio)” value is -1.6. The same measure for C13A G36A C72U A121C G127U: -0.199; for C12U G19C C56U U81G C104A G117C: -5.9; for C13G G42U C53A U87C C88U A121C C123A: -0.648. In the case of C12U C22G U38A C79U G122A, the “polymerase ribozyme fitness (log ratio)” value is -3.65. Next, C12U U33G C62G A105U U112G U125A: -6.16; C13G C40G C123G: -0.377. On to C13G A108G, for which the “polymerase ribozyme fitness (log ratio)” value was -3.4. Next, C12U G35A G57C C88U: -4.97; C12U C97U: -0.793; C12U C73U: 0.0527. The same measure for C12U C73A: 0.441. Next, C13A C20U C72U: -2.59.

As to C13G C40A G63C G117U U133G, the “polymerase ribozyme fitness (log ratio)” value is -6.59.

As to C12U G47A, the “polymerase ribozyme fitness (log ratio)” value is -0.468. As for C13G G51C C104U G120C, the “polymerase ribozyme fitness (log ratio)” value is -4.18.

As for C12U C22G G45A G71A C94U C99U, the “polymerase ribozyme fitness (log ratio)” value is -4.76. The same measure for C13G C73U U78C A121C: -0.0893.

Consider C13G G17U C64U G93C, for which the “polymerase ribozyme fitness (log ratio)” value is -4.19. Next, C13A C56U: -1.43; C13G C104A G110U: -6.08; C12U U78C G110U: -1.38. Consider C12U U112C, for which the “polymerase ribozyme fitness (log ratio)” value stood at 1.26. In the case of C13G U112A G113A, the “polymerase ribozyme fitness (log ratio)” value is -2.13. Consider C12U G77C, for which the “polymerase ribozyme fitness (log ratio)” value was found to be 0.201. The same measure for C13A A46U: -3.23. Next, C13U A50U G52C C53A U87A: -3.76. The same measure for C13U C62U G63C U112A: -0.823. Consider C12U C49G G113U C114A U129A, for which the “polymerase ribozyme fitness (log ratio)” value was -4.7. Next, C12U C49G C97A A111U: -5.43; C13U A66U C70U C72G C88U G120A U126C: -4.41; C13U C40A: -0.359. The same measure for C13U C40U: -0.246; for C13A C62U C89A: -3.31. Consider C12U U21A C62G C104U, for which the “polymerase ribozyme fitness (log ratio)” value was -2.05. Next, C13G A37G G48C: -3.17; C13G A50G G71A U106A C124A G127U: -0.731. Next, C12U U14A C40A C72U A105C: -4.37; C12U G19A G45U: -2.71. The same measure for C12U G47C G69U G107A: -4.81; for C13G G42U: -2.84.

In the case of C13A G42A G77U U131C, the “polymerase ribozyme fitness (log ratio)” value is -3.87. Consider C12U G44U G110A, for which the “polymerase ribozyme fitness (log ratio)” value was -2.1.

On to C13A C15U G47C C114A U130C, for which the “polymerase ribozyme fitness (log ratio)” value is -6.45. Next, C12U G36A A83C U106A U129C G135U: -1.4. The same measure for C13U A26G G58A: -3.1. The same measure for C12U G51A C101U: -2.14. For the variant C13A G39C G120A, the “polymerase ribozyme fitness (log ratio)” value is -0.0336.

On to C13G G52U A68G A111C C124U U133C, for which the “polymerase ribozyme fitness (log ratio)” value was -4.14. The same measure for C13A A29G U32A G39A G120A U126A U130G U134C: -2.77; for C12U C123U: 1.71.

Regarding C12U G44C C82G A103G G117C, the “polymerase ribozyme fitness (log ratio)” value is -6.32. With C13G C124G U126A U131A, the “polymerase ribozyme fitness (log ratio)” value is -0.0429. In the case of C12U G47A C79U U87C, the “polymerase ribozyme fitness (log ratio)” value was 0.112. The same measure for C13A C56G C89A A90U: -3.98. Next, C13G G48U: -2.21; C12U G42C C62A G120U U126C: -1.07; C12U G71A C94U: -1.26.

In the case of C13G C86G A90C A95G, the “polymerase ribozyme fitness (log ratio)” value is -4.51.

As for C13A G60U A91U G120A, the “polymerase ribozyme fitness (log ratio)” value is -2.31. Next, C13G G52U C70U C123A: -1.13. Next, C12U C13U C89U U133G: -0.318. Next, C13G A43G: -3.37. For C12U C13A A27G G93A, the “polymerase ribozyme fitness (log ratio)” value was -5.78.

With C13A A43C G44A C72U C76U U126A, the “polymerase ribozyme fitness (log ratio)” value was -5.92. Next, C13G A43U C101U: -3.57; C12U C13U C79G: -1.13; C13G C40U G47C C62U U78A: -3.84.

C13A C28G C49A A75U A103G G107U U112C: the “polymerase ribozyme fitness (log ratio)” value was -6.59.

In the case of C12U G47A U55A G61U C86U, the “polymerase ribozyme fitness (log ratio)” value is -0.0107. The same measure for C13A C62G: -2.67; for C13U A29C G61U: -2.08; for C13G U32C C85G: -4. On to C13U C40G G42A C79A, for which the “polymerase ribozyme fitness (log ratio)” value was -4.76. Next, C13G C53G G63A: -2.67; C12U G45A U96C G110U G135A: -2.06.

For C13U C22A A26C C56G G122A, the “polymerase ribozyme fitness (log ratio)” value is -4.98. The same measure for C12U G71C C82G: -1.53.

On to C13G G71C A84G C104A U109G G117U C124A U130G, for which the “polymerase ribozyme fitness (log ratio)” value is -6.92. C13U A121C: the “polymerase ribozyme fitness (log ratio)” value came to 1.84. Next, C12U G42U A84C U116A: -3.42; C13A A16U C101G: -4.02. For C12U C40U G69C A91U C101U A121C, the “polymerase ribozyme fitness (log ratio)” value is -2.89.

As to C12U U38C G107A G117C C123A, the “polymerase ribozyme fitness (log ratio)” value was -5.15.
